Like-named read-outs stand apart in the source and are kept apart here.
Molecular target: endogenous RelA in A549 cells (Homo sapiens) (UniProt Q04206)
Settings: two-step ChIP

Sequence of endogenous RelA in A549 cells (Homo sapiens) (Q04206 whole entry): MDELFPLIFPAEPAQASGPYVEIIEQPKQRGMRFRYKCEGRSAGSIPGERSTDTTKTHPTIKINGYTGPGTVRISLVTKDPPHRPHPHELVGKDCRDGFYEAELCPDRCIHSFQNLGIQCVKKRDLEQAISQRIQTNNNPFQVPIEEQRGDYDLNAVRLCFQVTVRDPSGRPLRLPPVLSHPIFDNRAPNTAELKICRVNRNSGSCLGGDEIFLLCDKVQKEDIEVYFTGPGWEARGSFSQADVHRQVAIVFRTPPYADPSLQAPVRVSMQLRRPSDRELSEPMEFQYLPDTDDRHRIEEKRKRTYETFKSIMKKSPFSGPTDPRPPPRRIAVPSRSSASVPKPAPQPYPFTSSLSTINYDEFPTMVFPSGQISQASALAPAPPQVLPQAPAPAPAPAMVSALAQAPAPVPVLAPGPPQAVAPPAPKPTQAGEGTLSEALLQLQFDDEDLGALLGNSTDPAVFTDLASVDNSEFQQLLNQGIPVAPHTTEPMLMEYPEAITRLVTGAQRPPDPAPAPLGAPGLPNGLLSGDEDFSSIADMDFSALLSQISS

Substance | binding signal (fold increase with TNF) (reduced to less than 2-fold by P028F4) | binding signal (fold increase with TNF) (reduced by transfected P028F4 (4 uM))
TNFAIP3/A20 promoter chromatin | 3.5 | –
Gro-beta promoter chromatin | – | 3.5
